Data on two molecules can be found in PMC6753162, “The interactome of 2-Cys peroxiredoxins in Plasmodium falciparum” (Scientific Reports, 2019).

Series [1] concerns the molecule itself. Briefly: not stated; 6xHis-tagged Prx reduced with DTT, in purification buffer and in coupling buffer; method not given.
Another series deals with T1, recombinant PfSAHH wt (P. falciparum, UniProt P50250 1-479).
T1 construct: S-adenosyl-L-homocysteine hydrolase, Plasmodium falciparum, wild type; not pre-reduced in the assay; also called S-adenosyl-L-homocysteine hydrolase; source: recombinant, purified (produced as previously described)
T1 sequence (P50250 whole entry): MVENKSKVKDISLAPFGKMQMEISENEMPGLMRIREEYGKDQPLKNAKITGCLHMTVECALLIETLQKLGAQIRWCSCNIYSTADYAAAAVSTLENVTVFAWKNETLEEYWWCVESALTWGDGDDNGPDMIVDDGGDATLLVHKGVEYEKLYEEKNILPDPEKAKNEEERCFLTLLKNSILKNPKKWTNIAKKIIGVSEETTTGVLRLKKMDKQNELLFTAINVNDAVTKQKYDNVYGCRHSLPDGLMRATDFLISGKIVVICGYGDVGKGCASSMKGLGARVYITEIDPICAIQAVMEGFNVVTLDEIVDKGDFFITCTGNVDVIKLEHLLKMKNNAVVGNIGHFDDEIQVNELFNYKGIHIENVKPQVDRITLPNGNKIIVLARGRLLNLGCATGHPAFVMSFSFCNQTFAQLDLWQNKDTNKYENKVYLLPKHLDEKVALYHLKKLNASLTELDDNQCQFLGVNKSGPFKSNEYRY
In words: pull-down; 2 mg reduced PfPrx1a wt on CNBr-activated Sepharose 4B; 8 mg purified recombinant PfLDH wt or PfSAHH wt (not pre-reduced); extensive washing; eluted with 10 mM DTT; silver-stained 12% SDS-PAGE. Particulars: both partners purified.

B1: PfPrx1a wild type (enzyme, P. falciparum, UniProt Q8IL80 1-195, looked up)
chain: MASYVGREAPYFKAEAVFADNTFGEVNLHDFIGKKYVLLYFYPLDFTFVCPSEIIALDKALDAFKERNVELIGCSVDSKYTHLAWKKTPLTKGGIGNIQHTLISDITKSISRSYNVLFGDSVSLRAFVLIDKQGVVQHLLVNNLAIGRSVEEVLRIIDAVQHHEQHGDVCPANWKKGKVAMKPSEEGVSEYLSKL
notes: PfPrx1a (thioredoxin peroxidase 1), Plasmodium falciparum; peroxidatic C50, resolving C170, further C74; also called PfPrx1a wt; thioredoxin peroxidase 1; source: E. coli M15 (pQE30), purified (Ni-NTA); not shown: His6, N-terminal, kept; copies: 10
As to B1, the stoichiometry N (in general, the number of molecules, sites or subunits per partner or assembly) in series [1] came out at 10. For the same molecule, in the series with recombinant PfSAHH wt, the binding result is reported as “binds”.

B2: PfPrx1m wild type (enzyme, P. falciparum)
chain: SLVTKKAYNFTAQGLNKNNEIINVDLSSFIGQKYCCLLFYPLNYTFVCPTEIIEFNKHIKDFENKNVELLGISVDSVYSHLAWKNMPIEKGGIGNVEFTLVSDINKDISKNYNVLYDNSFALRGLFIIDKNGCVRHQTVNDLPIGRNVQEVLRTIDSIIHVDTSGEVCPINWKKGQKAFKPTTESLIDYMNNANKNV
notes: PfPrx1m (thioredoxin peroxidase 2), Plasmodium falciparum, mitochondrial; peroxidatic C67, resolving C187, further C54, C55, C152; also called PfPrx1m wt; thioredoxin peroxidase 2; source: E. coli M15 (pQE30), purified (Ni-NTA); not shown: His6, N-terminal, kept; copies: 10
On to B2, for which the “stoichiometry N” value in series [1] is 10.
